Reference: US20230212549A1 (3B PHARMACEUTICALS, published 2023)
Where “and” joins values, the source holds several entries; their conditions need not be identical. Equal values may be shown once. Numbered stars: 1 amine (or outer) side, 2 acyl side, 3 side chain; on linkers, the order of the positions; unused ones are H or OH. Bridge positions count the residues as written; N and C are the ends. Square brackets hold non-standard residues; d marks the D form. Primed or numbered codes have the meaning given here. Side chains are listed from the residue outwards. * marks the point of attachment. Ttds″ = 1,13-diamino-4,7,10-trioxatridecan-succinamic acid spacer, O=C(CCC(=O)[*:2])NCCCOCCOCCOCCCN[*:1]; TBMB(SCH2CH2NH-DOTA) = O=C(O)CN1CCN(CC(=O)O)CCN(CC(=O)NCCSCc2cc(C[*:1])cc(C[*:2])c2)CCN(CC(=O)O)CC1; Ttds = 1,13-diamino-4,7,10-trioxatridecan-succinamic acid, O=C(CCC(=O)[*:2])NCCCOCCOCCOCCCN[*:1]; DOTA = O=C(O)CN1CCN(CC(=O)O)CCN(CC(=O)*)CCN(CC(=O)O)CC1; Biotin = O=C1N[C@H]2[C@H](CS[C@H]2CCCCC(=O)*)N1; Bip = N[C@@H](Cc1ccc(-c2ccccc2)cc1)C(=O)O; Met(O2) = CS(=O)(=O)CC[C@H](N)C(=O)O; mXylylene = c1cc(C[*:1])cc(C[*:2])c1; Pentanesulfonyl = CCCCCS(=O)(=O)*; NMeE = CN[C@@H](CCC(=O)O)C(=O)O; 3Amb = NCc1cccc(C(=O)O)c1; 4Amb = NCc1ccc(C(=O)O)cc1; DOTA′ = not defined here; Nle = CCCC[C@H](N)C(=O)O; Nphe = O=C(O)CNCc1ccccc1; Apr = not defined here; Hexanoyl = CCCCCC(=O)*; AEEA = NCCOCCOCC(=O)O; Sar = CNCC(=O)O

Legend:
[1] = biological target: Recombinant human FAP (R&D systems, #3715-SE) (human, UniProt Q12884 26-760); test: cell-based or functional assay
[2] = biological target: T1, fibroblast activation protein (FAP) on FAP-expressing human WI-38 fibroblasts (human, UniProt Q12884 1-760); test: competitive FACS, WI-38 cells, vs Cy5 tracer m3; A = pIC50 >8.0
T1 construct: also called human FAP

pIC50 Category (Activity) [1]	pIC50 Category (FACS) [2]	Binder
> 8 pIC50	> 8 pIC50	{DOTA}-[Ttds][Nle]CPPTEFCD[4Amb]R-NH2 (linker 3-9 via mXylylene; SMILES CCCC[C@H](NC(=O)CCC(=O)NCCCOCCOCCOCCCNC(=O)CN1CCN(CC(=O)O)CCN(CC(=O)O)CCN(CC(=O)O)CC1)C(=O)N[C@H]1CSCc2cccc(c2)CSC[C@@H](C(=O)N[C@@H](CC(=O)O)C(=O)NCc2ccc(C(=O)N[C@@H](CCCNC(=N)N)C(N)=O)cc2)NC(=O)[C@H](Cc2ccccc2)NC(=O)[C@H](CCC(=O)O)NC(=O)[C@H]([C@@H](C)O)NC(=O)[C@@H]2CCCN2C(=O)[C@@H]2CCCN2C1=O, also called 3BP-3321) [DOTA-Ttds-Nle-[Cys(3MeBn)-Pro-Pro-Thr-Glu-Phe-Cys]-Asp-Pamb-Arg-NH2]
> 8 pIC50	–	Hexanoyl-CPPTEFCD-NH2 (linker 1-7 via mXylylene; SMILES CCCCCC(=O)N[C@H]1CSCc2cccc(c2)CSC[C@@H](C(=O)N[C@@H](CC(=O)O)C(N)=O)NC(=O)[C@H](Cc2ccccc2)NC(=O)[C@H](CCC(=O)O)NC(=O)[C@H]([C@@H](C)O)NC(=O)[C@@H]2CCCN2C(=O)[C@@H]2CCCN2C1=O) [Hex-[Cys(3MeBn)-Pro-Pro-Thr-Glu-Phe-Cys]-Asp-NH2]
≤ 6 pIC50	–	Hexanoyl-CPPT[Met(O2)]FC-NH2 (linker 1-7 via mXylylene; SMILES CCCCCC(=O)N[C@H]1CSCc2cccc(c2)CSC[C@@H](C(N)=O)NC(=O)[C@H](Cc2ccccc2)NC(=O)[C@H](CCS(C)(=O)=O)NC(=O)[C@H]([C@@H](C)O)NC(=O)[C@@H]2CCCN2C(=O)[C@@H]2CCCN2C1=O) [Hex-[Cys(3MeBn)-Pro-Pro-Thr-Moo-Phe-Cys]-NH2]
> 8 pIC50	> 8 pIC50	Hexanoyl-CPPTQXC-OH (linker 1-7 via TBMB(SCH2CH2NH-DOTA); not fully specified (residue 6); printed as Hex-[Cys(tMeBn(DOTA-AET))-Pro-Pro-Thr-Gln-Mpa-Cys]-OH, also called 3BP-3664) [Hex-[Cys(tMeBn(DOTA-AET))-Pro-Pro-Thr-Gln-Mpa-Cys]-OH]
≤ 6 pIC50	–	Hexanoyl-CPPT[NMeE]FC-NH2 (linker 1-7 via mXylylene; SMILES CCCCCC(=O)N[C@H]1CSCc2cccc(c2)CSC[C@@H](C(N)=O)NC(=O)[C@H](Cc2ccccc2)NC(=O)[C@H](CCC(=O)O)N(C)C(=O)[C@H]([C@@H](C)O)NC(=O)[C@@H]2CCCN2C(=O)[C@@H]2CCCN2C1=O) [Hex-[Cys(3MeBn)-Pro-Pro-Thr-Nme-Phe-Cys]-NH2]
> 8 pIC50	> 8 pIC50	CPPTQFX (not fully specified; N-term Hex; X7 = AET (2-aminoethanethiol, no carboxyl group); Cys1/AET7 thioether-bridged by tMeBn carrying DOTA-AET, also called 3BP-3654) [Hex-[Cys(tMeBn(DOTA-AET))-Pro-Pro-Thr-Gln-Phe-AET]]
> 8 pIC50	> 8 pIC50	Hexanoyl-C[Sar]PTQFC-OH (linker 1-7 via TBMB(SCH2CH2NH-DOTA); SMILES CCCCCC(=O)N[C@H]1CSCc2cc(CSCCNC(=O)CN3CCN(CC(=O)O)CCN(CC(=O)O)CCN(CC(=O)O)CC3)cc(c2)CSC[C@@H](C(=O)O)NC(=O)[C@H](Cc2ccccc2)NC(=O)[C@H](CCC(N)=O)NC(=O)[C@H]([C@@H](C)O)NC(=O)[C@@H]2CCCN2C(=O)CN(C)C1=O, also called 3BP-3678) [Hex-[Cys(tMeBn(DOTA-AET))-Nmg-Pro-Thr-Gln-Phe-Cys]-OH]
7.1 pIC50 and 8 pIC50	> 8 pIC50	Pentanesulfonyl-CPPTEFC-OH (linker 1-7 via TBMB(SCH2CH2NH-DOTA); SMILES CCCCCS(=O)(=O)N[C@H]1CSCc2cc(CSCCNC(=O)CN3CCN(CC(=O)O)CCN(CC(=O)O)CCN(CC(=O)O)CC3)cc(c2)CSC[C@@H](C(=O)O)NC(=O)[C@H](Cc2ccccc2)NC(=O)[C@H](CCC(=O)O)NC(=O)[C@H]([C@@H](C)O)NC(=O)[C@@H]2CCCN2C(=O)[C@@H]2CCCN2C1=O, also called 3BP-3691) [Pentyl-SO2-[Cys(tMeBn(DOTA-AET))-Pro-Pro-Thr-Glu-Phe-Cys]-OH]
> 8 pIC50	> 8 pIC50	Hexanoyl-CPPTEFC-NH2 (linker 1-7 via TBMB(SCH2CH2NH-DOTA); SMILES CCCCCC(=O)N[C@H]1CSCc2cc(CSCCNC(=O)CN3CCN(CC(=O)O)CCN(CC(=O)O)CCN(CC(=O)O)CC3)cc(c2)CSC[C@@H](C(N)=O)NC(=O)[C@H](Cc2ccccc2)NC(=O)[C@H](CCC(=O)O)NC(=O)[C@H]([C@@H](C)O)NC(=O)[C@@H]2CCCN2C(=O)[C@@H]2CCCN2C1=O, also called 3BP-3653) [Hex-[Cys(tMeBn(DOTA-AET))-Pro-Pro-Thr-Glu-Phe-Cys]-NH2]
> 8 pIC50	> 8 pIC50	H-MCPPTEFCDHFRD[Ttds″]K(Biotin)-NH2 (linker 2-8 via mXylylene; SMILES CSCC[C@H](N)C(=O)N[C@H]1CSCc2cccc(c2)CSC[C@@H](C(=O)N[C@@H](CC(=O)O)C(=O)N[C@@H](Cc2c[nH]cn2)C(=O)N[C@@H](Cc2ccccc2)C(=O)N[C@@H](CCCNC(=N)N)C(=O)N[C@@H](CC(=O)O)C(=O)NCCCOCCOCCOCCCNC(=O)CCC(=O)N[C@@H](CCCCNC(=O)CCCC[C@@H]2SC[C@@H]3NC(=O)N[C@@H]32)C(N)=O)NC(=O)[C@H](Cc2ccccc2)NC(=O)[C@H](CCC(=O)O)NC(=O)[C@H]([C@@H](C)O)NC(=O)[C@@H]2CCCN2C(=O)[C@@H]2CCCN2C1=O, also called 3BP-2881) [H-Met-[Cys(3MeBn)-Pro-Pro-Thr-Glu-Phe-Cys]-Asp-His-Phe-Arg-Asp-Ttds-Lys(Bio)-NH2]
> 8 pIC50	> 8 pIC50	Hexanoyl-CPPTEFCD[3Amb]R-NH2 (linker 1-7 via mXylylene; SMILES CCCCCC(=O)N[C@H]1CSCc2cccc(c2)CSC[C@@H](C(=O)N[C@@H](CC(=O)O)C(=O)NCc2cccc(C(=O)N[C@@H](CCCNC(=N)N)C(N)=O)c2)NC(=O)[C@H](Cc2ccccc2)NC(=O)[C@H](CCC(=O)O)NC(=O)[C@H]([C@@H](C)O)NC(=O)[C@@H]2CCCN2C(=O)[C@@H]2CCCN2C1=O, also called 3BP-3324) [Hex-[Cys(3MeBn)-Pro-Pro-Thr-Glu-Phe-Cys]-Asp-Mamb-Arg-NH2]

The next lines start with the binder.

Binder	pIC50 Category (Activity) [1]	pIC50 Category (FACS) [2]
Hexanoyl-CPPTAFC-NH2 (linker 1-7 via mXylylene; SMILES CCCCCC(=O)N[C@H]1CSCc2cccc(c2)CSC[C@@H](C(N)=O)NC(=O)[C@H](Cc2ccccc2)NC(=O)[C@H](C)NC(=O)[C@H]([C@@H](C)O)NC(=O)[C@@H]2CCCN2C(=O)[C@@H]2CCCN2C1=O) [Hex-[Cys(3MeBn)-Pro-Pro-Thr-Ala-Phe-Cys]-NH2]	≤ 6 pIC50	–
Hexanoyl-CPPTE([Apr-AEEA-DOTA′])FCD-NH2 (linker 1-7 via mXylylene; reading uncertain; also: printed as Hex-[Cys(3MeBn)-Pro-Pro-Thr-Glu(NH-Apr-O2Oc-DOTA′)-Phe-Cys]-Asp-NH2) [Hex-[Cys(3MeBn)-Pro-Pro-Thr-Glu(NH-Apr-O2Oc-DOTA′)-Phe-Cys]-Asp-NH2]	6.1 pIC50 and 7 pIC50	–
Hexanoyl-CPPTE([Apr-DOTA′])FCD-NH2 (linker 1-7 via mXylylene; reading uncertain; also: printed as Hex-[Cys(3MeBn)-Pro-Pro-Thr-Glu(NH-Apr-DOTA′)-Phe-Cys]-Asp-NH2) [Hex-[Cys(3MeBn)-Pro-Pro-Thr-Glu(NH-Apr-DOTA′)-Phe-Cys]-Asp-NH2]	≤ 6 pIC50	–
Hexanoyl-CPPTE[Bip]C-NH2 (linker 1-7 via mXylylene; SMILES CCCCCC(=O)N[C@H]1CSCc2cccc(c2)CSC[C@@H](C(N)=O)NC(=O)[C@H](Cc2ccc(-c3ccccc3)cc2)NC(=O)[C@H](CCC(=O)O)NC(=O)[C@H]([C@@H](C)O)NC(=O)[C@@H]2CCCN2C(=O)[C@@H]2CCCN2C1=O) [Hex-[Cys(3MeBn)-Pro-Pro-Thr-Glu-Bip-Cys]-NH2]	≤ 6 pIC50	–
{DOTA}-[Ttds][Nle]CPPTQFCD-NH2 (linker 3-9 via mXylylene; SMILES CCCC[C@H](NC(=O)CCC(=O)NCCCOCCOCCOCCCNC(=O)CN1CCN(CC(=O)O)CCN(CC(=O)O)CCN(CC(=O)O)CC1)C(=O)N[C@H]1CSCc2cccc(c2)CSC[C@@H](C(=O)N[C@@H](CC(=O)O)C(N)=O)NC(=O)[C@H](Cc2ccccc2)NC(=O)[C@H](CCC(N)=O)NC(=O)[C@H]([C@@H](C)O)NC(=O)[C@@H]2CCCN2C(=O)[C@@H]2CCCN2C1=O, also called 3BP-3401) [DOTA-Ttds-Nle-[Cys(3MeBn)-Pro-Pro-Thr-Gln-Phe-Cys]-Asp-NH2]	> 8 pIC50	> 8 pIC50
Hexanoyl-CPPAEFC-NH2 (linker 1-7 via mXylylene; SMILES CCCCCC(=O)N[C@H]1CSCc2cccc(c2)CSC[C@@H](C(N)=O)NC(=O)[C@H](Cc2ccccc2)NC(=O)[C@H](CCC(=O)O)NC(=O)[C@H](C)NC(=O)[C@@H]2CCCN2C(=O)[C@@H]2CCCN2C1=O) [Hex-[Cys(3MeBn)-Pro-Pro-Ala-Glu-Phe-Cys]-NH2]	≤ 6 pIC50	–
Hexanoyl-CAPTEFC-NH2 (linker 1-7 via mXylylene; SMILES CCCCCC(=O)N[C@H]1CSCc2cccc(c2)CSC[C@@H](C(N)=O)NC(=O)[C@H](Cc2ccccc2)NC(=O)[C@H](CCC(=O)O)NC(=O)[C@H]([C@@H](C)O)NC(=O)[C@@H]2CCCN2C(=O)[C@H](C)NC1=O) [Hex-[Cys(3MeBn)-Ala-Pro-Thr-Glu-Phe-Cys]-NH2]	6.1 pIC50 and 7 pIC50	–
Hexanoyl-CPPTEAC-NH2 (linker 1-7 via mXylylene; SMILES CCCCCC(=O)N[C@H]1CSCc2cccc(c2)CSC[C@@H](C(N)=O)NC(=O)[C@H](C)NC(=O)[C@H](CCC(=O)O)NC(=O)[C@H]([C@@H](C)O)NC(=O)[C@@H]2CCCN2C(=O)[C@@H]2CCCN2C1=O) [Hex-[Cys(3MeBn)-Pro-Pro-Thr-Glu-Ala-Cys]-NH2]	6.1 pIC50 and 7 pIC50	–
Hexanoyl-CPPTE[Nphe]C-NH2 (linker 1-7 via mXylylene; SMILES CCCCCC(=O)N[C@H]1CSCc2cccc(c2)CSC[C@@H](C(N)=O)NC(=O)CN(Cc2ccccc2)C(=O)[C@H](CCC(=O)O)NC(=O)[C@H]([C@@H](C)O)NC(=O)[C@@H]2CCCN2C(=O)[C@@H]2CCCN2C1=O) [Hex-[Cys(3MeBn)-Pro-Pro-Thr-Glu-Nphe-Cys]-NH2]	≤ 6 pIC50	–
